Test results taken from patent US20200138960A1 (KUNSHAN XINYUNDA BIOTECH, published 2020).
Numbering of substitutions follows the chain as printed.

B1: C-loop (designed binder)
chain: MSSQIRQNYSTDVEAAVNSLVNLYLQASYTYLSLGFYFDRDDVALEGVSHFFRELAEEKREGYERLLKMQNQRGGRALFQDIKKPDCDEWESGLNAMECALHLEKKLNQALLDLHALGSARTDPHLCDFLETHFLDEEVKLIKKMGDHLTNLRKMGAPEAGLGEYLFERLTLKHD
B2: C terminal (designed binder)
chain: B1 chain with D86A, C87E
B3: NC-loop (designed binder)
chain: MSSQIRQNYHQDSEAAVNRQINLYLQASYTYLSLGFYFDRDDVALEGVSHFFRELAEEKREGYERLLKMQNQRGGRIFLQDIKKPDCDEWESGLNAMECALHLEKKLNQALLDLHKLATDKNDPHLCDFLETHFLDEEVKLIKKMGDHLTNLRKMGAPEAGLGEYLFERLTLKHD
B4: NC fusion (designed binder)
chain: B3 chain with D86A, C87E
B5: N-loop (designed binder)
chain: MSSQIRQNYHQDSEAAVNRQINLYLQASYTYLSLGFYFDRDDVALEGVSHFFRELAEEKREGYERLLKMQNQRGGRIFLQDIKKPDCDEWGKTPDAMKAAMALEKKLNQALLDLHKLATDKNDPHLCDFLETHFLDEEVKLIKKMGDHLTNLHRLGGPEAGLGEYLFERLTLKHD
notes: expressed in E. coli from PET22b; Purity of target protein 77.1%; also called N-loop modified protein
B6: N terminal (designed binder)
chain: B5 chain with D86A, C87E
B7: chimeric human H-ferritin (designed binder)
chain: MTSQVRQNYHQDSEAAINRQINLELYASYVYLSMSYYFDRDDVALEGVSHFFRELAEEKREGYERLLKMQNQRGGRIFLQDIKKPDCDDWESGLNAMECALHLEKNVNQSLLELHKLATDKNDPHLCDFLETHFLDEEVKLIKKMGDHVTNLRKMGAPESGLAEYLFERLTLKHD
notes: FITC-labelled in the cell assays; also called chimeric human H-ferritins

biological target: T1, TfR1 (human, Sino Biological Inc.) (human, UniProt P02786 89-760); assay: ELISA, protein coated at 20 ug/mL, 2 ug/mL TfR1, anti-TfR1 detection
T1 construct: Bought protein; the catalogue number printed for it (11020-MM02) is the same as that printed for the anti-TfR1 primary antibody, so the construct cannot be told; also called TfFR1; receptor TfR1
T1 sequence (P02786 89-760 limits assumed): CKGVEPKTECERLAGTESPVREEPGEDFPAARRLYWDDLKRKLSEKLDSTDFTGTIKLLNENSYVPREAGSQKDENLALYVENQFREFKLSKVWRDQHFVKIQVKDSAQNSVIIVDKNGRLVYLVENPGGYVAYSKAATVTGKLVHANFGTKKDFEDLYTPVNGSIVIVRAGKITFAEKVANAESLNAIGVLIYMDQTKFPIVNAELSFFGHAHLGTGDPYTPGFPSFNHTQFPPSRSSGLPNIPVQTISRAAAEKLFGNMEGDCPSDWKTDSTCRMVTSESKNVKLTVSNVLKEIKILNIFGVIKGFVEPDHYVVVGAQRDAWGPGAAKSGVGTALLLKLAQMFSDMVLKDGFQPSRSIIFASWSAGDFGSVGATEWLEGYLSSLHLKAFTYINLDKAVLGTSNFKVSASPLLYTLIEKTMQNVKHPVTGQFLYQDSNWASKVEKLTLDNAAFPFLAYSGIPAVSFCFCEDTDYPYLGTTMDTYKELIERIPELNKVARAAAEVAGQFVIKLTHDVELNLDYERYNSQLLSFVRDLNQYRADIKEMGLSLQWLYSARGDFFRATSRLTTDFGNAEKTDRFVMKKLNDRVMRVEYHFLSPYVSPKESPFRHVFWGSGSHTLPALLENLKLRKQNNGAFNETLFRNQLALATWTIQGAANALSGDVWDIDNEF

Q: Which ELISA value does the source give for B1 here?
A: 0.31 OD630

Q: Which ELISA value does the source give for B2 here?
A: 0.1 OD630

Q: Which ELISA value does the source give for B3 here?
A: 1.23 OD630

Q: Which ELISA value does the source give for B4 here?
A: 1.03 OD630

Q: How did the ELISA value turn out when B5 was run?
A: 1.17 OD630

Q: B6 was tested. Which ELISA value did it give?
A: 0.88 OD630

biological target: T1, TfR1 (human, Sino Biological Inc.); assay: ELISA value converted by purity of target protein

Q: Which “Converted ELISA value” does the source give for B1 here?
A: 0.71

Q: For B2, which “Converted ELISA value” is on record?
A: 0.17

Q: For B3, which “Converted ELISA value” is on record?
A: 2.02

Q: How did the “Converted ELISA value” turn out when B4 was run?
A: 1.14

Q: How did the “Converted ELISA value” turn out when B5 was run?
A: 1.52

Q: For B6, which “Converted ELISA value” is on record?
A: 1.3

biological target: T2, human Transferrin Receptor 1 (TfR1) on cells (human, UniProt P02786 1-760); assay: flow cytometry on hCMEC/D3 cells according to Example 1b
T2 construct: whole, on cells; Endogenous receptor on human cell lines; also called receptor TfR1 on hCMEC/D3 cells; TfR1 on U87-MG cells
T2 sequence (P02786 whole entry): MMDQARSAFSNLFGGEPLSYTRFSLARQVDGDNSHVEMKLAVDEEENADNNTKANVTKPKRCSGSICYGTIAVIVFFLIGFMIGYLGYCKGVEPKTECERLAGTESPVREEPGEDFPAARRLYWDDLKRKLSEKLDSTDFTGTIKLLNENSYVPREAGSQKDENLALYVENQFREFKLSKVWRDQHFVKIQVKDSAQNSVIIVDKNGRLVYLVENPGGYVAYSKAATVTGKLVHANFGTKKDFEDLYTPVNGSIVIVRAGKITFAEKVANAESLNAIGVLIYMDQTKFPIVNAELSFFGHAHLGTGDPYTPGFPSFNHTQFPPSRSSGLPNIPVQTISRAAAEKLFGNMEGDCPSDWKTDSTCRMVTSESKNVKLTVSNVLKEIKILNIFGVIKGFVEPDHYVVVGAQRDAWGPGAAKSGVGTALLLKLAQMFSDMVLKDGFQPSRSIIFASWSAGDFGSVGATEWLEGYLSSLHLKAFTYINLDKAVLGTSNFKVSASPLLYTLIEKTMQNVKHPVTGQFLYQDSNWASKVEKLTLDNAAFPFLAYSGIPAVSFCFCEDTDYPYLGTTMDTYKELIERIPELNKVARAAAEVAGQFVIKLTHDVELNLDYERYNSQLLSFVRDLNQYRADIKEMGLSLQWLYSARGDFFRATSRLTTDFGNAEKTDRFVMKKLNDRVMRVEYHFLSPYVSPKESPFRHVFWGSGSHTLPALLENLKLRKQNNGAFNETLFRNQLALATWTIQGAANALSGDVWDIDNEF

Q: Does B7 bind?
A: binds
